Two substances from US5091518 can be followed below.

This data set concerns the target T1, Retinoic acid receptor alpha (RAR-alpha) (UniProt P10276).
T1 sequence: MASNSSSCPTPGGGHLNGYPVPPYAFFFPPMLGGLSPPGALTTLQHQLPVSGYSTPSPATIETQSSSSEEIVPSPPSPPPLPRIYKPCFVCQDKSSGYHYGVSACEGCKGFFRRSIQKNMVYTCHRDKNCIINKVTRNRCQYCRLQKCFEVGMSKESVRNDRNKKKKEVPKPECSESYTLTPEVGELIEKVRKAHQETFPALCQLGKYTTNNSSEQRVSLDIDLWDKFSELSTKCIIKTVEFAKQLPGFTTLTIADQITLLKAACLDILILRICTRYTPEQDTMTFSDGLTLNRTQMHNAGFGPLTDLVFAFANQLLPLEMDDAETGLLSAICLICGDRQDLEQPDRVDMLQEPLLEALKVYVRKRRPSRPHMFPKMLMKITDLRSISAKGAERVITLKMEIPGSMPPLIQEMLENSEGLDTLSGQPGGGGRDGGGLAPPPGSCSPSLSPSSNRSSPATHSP
The experiment in a line: cell_activity.

With 183 bp SmaI fragment of RARb promoter, the activity (fold induction) (CV-1 cells, 10^-6 M retinoic acid, reverse orientation 9-fold) was found to be 10.

As to “NR oligo (45 bp located 24 bp 3' of bRE1)”, the activity (fold induction) (same as empty DMTV-LUC (2-fold)) was 2.
